Test results taken from PMC4920411, “Binary Toxin Subunits of Lysinibacillus sphaericus Are Monomeric and Form Heterodimers after In Vitro Activation” (PLoS ONE, 2016).

What was measured:
Conditions in all cases: both partners purified
[1] = biological target: T1, activated BinB (act-B), trypsin-cleaved (Lysinibacillus sphaericus); experiment: AUC; sedimentation equilibrium, 20°C, 3–10 μM in monomer, 10 to 22.5 krpm, same buffer with 35 mM C8E5 density matched with 16% D2O; global fit to an A+B heteroassociation model (SEDPHAT)
T1 chain: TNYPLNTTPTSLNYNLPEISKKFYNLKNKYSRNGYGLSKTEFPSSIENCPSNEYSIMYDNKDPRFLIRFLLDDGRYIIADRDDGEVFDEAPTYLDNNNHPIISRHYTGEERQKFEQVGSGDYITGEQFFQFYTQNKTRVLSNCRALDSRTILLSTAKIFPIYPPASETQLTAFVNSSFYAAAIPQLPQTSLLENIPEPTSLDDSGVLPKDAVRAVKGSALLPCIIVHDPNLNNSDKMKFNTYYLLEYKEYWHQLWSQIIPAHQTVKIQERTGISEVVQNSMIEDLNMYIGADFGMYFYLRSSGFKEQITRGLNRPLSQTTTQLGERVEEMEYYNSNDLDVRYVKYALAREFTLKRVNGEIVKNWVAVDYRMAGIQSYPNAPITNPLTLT

[2] = biological target: T1, activated BinB (act-B), trypsin-cleaved; experiment: AUC; sedimentation equilibrium, 20°C, 3–10 μM in monomer, 10 to 22.5 krpm, 50 mM Tris-HCl pH 9.0, 50 mM NaCl, 1 mM DTT, without detergent; global fit to an A+B heteroassociation model (SEDPHAT)
[3] = biological target: T1, activated BinB (act-B), trypsin-cleaved; experiment: SEC; Superdex 200 HR 10/30, 50 mM Tris-HCl pH 9.0, 50 mM NaCl, 1 mM DTT; subunits alone or mixed 1:1, incubated 15 min at room temperature; typically 60 μM before and 18 μM after chromatography (total monomer); eluted band checked by SDS-PAGE and MALDI-TOF

B1: activated BinA (act-A), trypsin-cleaved (domain or fragment)
chain: IDSFIPTEGKYIRVMDFYNSEYPFCIHAPSAPNGDIMTEICSRENNQYFIFFPTDDGRVIIANRHNGSVFTGEATSVVSDIYTGSPLQFFREVKRTMATYYLAIQNPESATDVRALEPHSHELPSRLYYTNNIENNSNILISNKEQIYLTLPSLPENEQYPKTPVLSGIDDIGPNQSEKSIIGSTLIPCIMVSDFISLGERMKTTPYYYVKHTQYWQSMWSALFPPGSKETKTEKSGITDTSQISMTDGINVSIGADFGLRFGNKTFGIKGGFTYDTKTQITNTSQLLIETTYTREYTNTENFPVRYTGYVLASEFTLHRSDGTQVNTIPWVALNDNYTTIARYPHFASEPLLGNTKIITDDQN
modifications: Trypsin-activated. Cleavage sites not given; UniProt mature chain limits used (MALDI about 40.8 kDa). Strain not given; P06575 chosen over the strain variant P05516. / Trypsin-activated. Cleavage
Question: B1 was tested. Which Ka [1] did it give?
Answer: Its Ka is 1.92e+06 M⁻¹.

Question: What about the Ka [2] of the same binder?
Answer: Its Ka is 1.19e+06 M⁻¹.

Question: And the “stoichiometry N” value [3]?
Answer: The value was 1.
